The values that follow are results of earlier work, collected in patent US20190351003A1, “METHODS FOR INHIBITING NONALCOHOLIC STEATOHEPATITIS, NONALCOHOLIC FATTY LIVER DISEASE, AND/OR DE NOVO LIPOGENESIS” (The Regents of the University of California, priority 2017, published 2019).

Where no end group is shown, it is not given here. The star is where a group is joined. CH2F = FC*

For the series, the target named is T1, caspase-2 (Homo sapiens, UniProt P42575).
T1 sequence (P42575 1-452): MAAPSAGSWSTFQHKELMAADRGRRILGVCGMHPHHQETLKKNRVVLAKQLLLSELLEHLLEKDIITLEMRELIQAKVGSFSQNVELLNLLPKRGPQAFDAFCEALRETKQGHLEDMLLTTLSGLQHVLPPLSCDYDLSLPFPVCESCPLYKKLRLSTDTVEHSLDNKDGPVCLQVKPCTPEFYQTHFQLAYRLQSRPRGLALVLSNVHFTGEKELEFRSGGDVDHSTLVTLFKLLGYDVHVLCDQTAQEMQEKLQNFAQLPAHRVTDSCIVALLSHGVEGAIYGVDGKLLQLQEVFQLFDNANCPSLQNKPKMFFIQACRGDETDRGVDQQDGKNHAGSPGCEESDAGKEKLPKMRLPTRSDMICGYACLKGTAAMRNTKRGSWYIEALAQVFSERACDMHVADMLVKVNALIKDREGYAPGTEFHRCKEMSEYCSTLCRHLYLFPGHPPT
As to conditions: cell-permeable peptide; fluoromethylketone derivative; cited from earlier work.

With “VDVAD (VDVAD-CH2F) [available as a fluoromethylketone derivative]”, the “activity of caspase-2” value is “irreversibly inhibits”.
